Results on one substance are retold here after patent publication US20050032744A1.

Assay [1] addresses adenylyl cyclase (AC) in rat dorsal root ganglia (DRG) lysates (rat). Kind of assay: cell-based or functional assay.
Assay [2] concerns the target adenylyl cyclase (AC) in rat spinal cord lysates / membrane preparations (rat). Kind of assay: cell-based or functional assay.

In assay [1], “Protein Associated with Myc (PAM), human, full length, purified from HeLa cells (from UniProt O75592 1-4678)” came in with an inhibition of Gαs-stimulated AC activity, DRG lysates, 30 nM PAM of 32%. Moreover, in assay [2], the inhibition of Gαs-stimulated AC activity, spinal cord lysates of animals treated for 1 hour with formalin, 30 nM PAM stood at 25%; the inhibition of Gαs-stimulated AC activity, spinal cord lysates of control animals, 30 nM PAM amounted to 49%; the inhibition of Gαs-stimulated AC activity, spinal cord lysates of rats 96 hours after zymosan injection, 30 nM PAM is 70%.
